Patent US20240067747A1 (SHANGHAI HUAOTA BIOPHARMACEUTICAL, published 2024)

T1: human CD73 on the cell surface of CHOK1-huCD73-3F4 cells (Huabo Biopharm) (human, UniProt P21589 27-549)
T1 construct: whole, on cells; also called cells expressing human CD73; CD73 on cell membrane
T1 sequence (looked up): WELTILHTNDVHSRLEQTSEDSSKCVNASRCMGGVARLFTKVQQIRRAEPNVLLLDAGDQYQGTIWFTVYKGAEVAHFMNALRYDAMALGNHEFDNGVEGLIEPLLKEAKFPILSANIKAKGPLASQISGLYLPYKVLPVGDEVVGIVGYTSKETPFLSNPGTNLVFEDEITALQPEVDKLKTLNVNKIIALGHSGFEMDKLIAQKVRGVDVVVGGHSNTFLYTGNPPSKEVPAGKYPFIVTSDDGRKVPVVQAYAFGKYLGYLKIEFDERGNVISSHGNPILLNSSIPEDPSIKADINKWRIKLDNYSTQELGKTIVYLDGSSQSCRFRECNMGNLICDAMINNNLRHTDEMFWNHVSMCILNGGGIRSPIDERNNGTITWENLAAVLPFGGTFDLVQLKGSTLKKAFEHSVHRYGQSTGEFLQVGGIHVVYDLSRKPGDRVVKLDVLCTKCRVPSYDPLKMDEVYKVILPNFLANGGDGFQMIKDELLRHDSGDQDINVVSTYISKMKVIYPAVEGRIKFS

T2: Mouse CD73/NT5E protein (ACRO Biosystems, item No. CD3-M52H9) (mouse, UniProt Q61503 29-551)
T2 construct: Bought protein
T2 sequence (looked up): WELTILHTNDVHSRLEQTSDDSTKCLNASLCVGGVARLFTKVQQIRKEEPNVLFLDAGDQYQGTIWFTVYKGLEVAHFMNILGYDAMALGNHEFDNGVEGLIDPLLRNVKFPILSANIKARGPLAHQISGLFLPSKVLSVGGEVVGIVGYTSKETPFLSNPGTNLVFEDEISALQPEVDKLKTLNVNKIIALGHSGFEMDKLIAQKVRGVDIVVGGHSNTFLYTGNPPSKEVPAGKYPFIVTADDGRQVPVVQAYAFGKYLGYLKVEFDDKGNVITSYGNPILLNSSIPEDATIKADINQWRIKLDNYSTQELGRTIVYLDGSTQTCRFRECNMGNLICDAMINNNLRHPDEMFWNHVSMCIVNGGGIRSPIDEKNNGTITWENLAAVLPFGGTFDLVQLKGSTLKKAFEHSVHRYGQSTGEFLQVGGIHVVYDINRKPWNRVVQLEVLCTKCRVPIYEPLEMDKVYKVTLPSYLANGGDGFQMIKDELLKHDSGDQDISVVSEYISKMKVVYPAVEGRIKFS


Tests used:
[1] = molecular target: T1, human CD73 on the cell surface of …; assay: flow cytometry on CHOK1-huCD73-3F4 cells, PE-goat anti-human-Fc
Experimental: All antigen-binding proteins were diluted to 30 μg/ml with 1% BSA in PBS solution (1% BSA/PBS) and then 3-fold diluted for 11 gradients. The diluted antigen-binding proteins were added to a 96-well U-shaped plate at 20 μL per well; and a negative control (with 1% BSA/PBS added only) was set up at the same time. The suspension of cells (CHOK1-huCD73-3F4, Huabo Biopharm) expressing human CD73 during the logarithmic growth phase were centrifuged (1000 rpm×5 min) to discard the culture medium; and the cells were resuspended with 1% BSA/PBS until the density of viable cells was 1×10⁶/mL, and were added, at 20 μL (2×10⁴ cells) per well, to the 96-well U-shaped plate with the […] antigen-binding protein to react for 30 min at room temperature. After reaction, the 96-well U-shaped plate was resuspended with 1% BSA/PBS, centrifuged (300 g×3 min) to discard the supernatant, and washed once in such a way. PE-goat anti-human-Fc (Jackson ImmunoResearch, #109-115098) diluted at 1:200 was added to react for 15 min in the dark at room temperature. After reaction, the 96-well U-shaped plate was resuspended with 1% BSA/PBS, centrifuged (300 g×3 min) to discard the supernatant, washed three times in such a way, and finally resuspended with 100 μL of 1% BSA/PBS for each wall; and the fluorescence intensity of a PE channel was detected with a flow cytometer (BD, #Cantoll).

[2] = molecular target: T2, Mouse CD73/NT5E protein (ACRO …); assay: SPR, Biacore T200, antibody captured on protein A chip, CD73 as analyte
Experimental: In the tests, the assay buffer HBS-EP+ (pH 7.4) and the protein A chip (manufacturer: GE, item No.: 29-1275-56) were used.
The temperatures of a sample chamber and a flow path were set at 25° C., and the protein A chip respectively captured antigen-binding proteins as ligands and immobilized at about 100 RU. […] After association for 120 s at a flow rate of 30 μL/min, dissociation was carried out for 600 s. Regeneration was then carried out for 60 s with 10 mM Glycine (pH 1.5) at a flow rate of 50 μL/min to implement multi-cycle kinetic detection. A 1:1 binding model was selected for fitting analysis in a Fit local mode to acquire the association rate constant (ka), dissociation rate constant (kd) and dissociation equilibrium rate constant (KD).

[3] = molecular target: T3, Lysozyme from chicken egg (Sigma, L3790) (chicken, UniProt P00698 19-147); assay: SPR, Biacore 8K, lysozyme immobilized on CM5, antibody at 1000 nM; buffer alone 16.9 RU
T3 construct: Non-target molecule, amine-coupled to a CM5 chip
T3 sequence (P00698 19-147 limits assumed): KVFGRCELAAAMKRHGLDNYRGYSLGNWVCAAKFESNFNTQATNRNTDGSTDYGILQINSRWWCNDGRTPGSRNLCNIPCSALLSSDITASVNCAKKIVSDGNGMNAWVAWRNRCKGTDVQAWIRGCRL
Experimental: The non-specific adsorption effect of antigen-binding proteins and non-target molecules were determined by using the SPR method.
The series sensor chip CM5 (GE, #BR-1005-30) was equilibrated at room temperature for 20-30 min and then loaded into the Biacore 8K (GE) instrument. Lysozyme solution (Sigma, #L3790) from egg and trypsin inhibitor type 1-S (Sigma, #T-2327) from Glycine max were immobilized onto the CM5 chip using an amino coupling kit (GE, #BR-1000-50). The injection buffer was HBS-EP (1×) (GE, #BR-1006-69) and four equilibration cycles were set up. The polyclonal rabbit anti-lysozyme (ABcam, Ab391), anti-trypsin inhibitor antibodies (LifeSpan Biosciences, #LS-C76609), chimeric antibodies and humanized antibodies were diluted with equilibration buffer to 1000 nM, and the flow rate was set at 5 μL/min and injection channels 1, 2 and 3, Flow Cell 1 and 2 were selected. The association time was 10 min and the dissociation time was 10 min.
The PI of carboxymethyl dextran was 3.5, the PI of the trypsin inhibitor was 4.5, and the PI of lysozyme was 11.3. In the HBS-EP buffer solution with a pH of 7.4, carboxymethyl dextran and the trypsin inhibitor had strong negative charges, and lysozyme had strong positive charges.

[4] = molecular target: T1, human CD73 on the cell surface of …; assay: cell-based or functional assay

Row | Binder | EC50 [1] [µg/mL] | non-specific binding amount (RU) [3] [RU] | EC50 of inhibition of the enzyme activity of CD73 on cell membrane (AMP/ATP, CellTiter-Glo) [4] [µg/mL] | binding result [2]
1 | 900567 (human-mouse chimeric anti-CD73 antigen-binding protein expressed from 124A9 variable regions) (antibody, V domains shown) VH: QVQLQQPGAELVKPGASVKLSCKASGYTFTSYWIHWVKQRPGQGLDWIGMIHPNSGSTYYNEKFKSKATLTVDKSSSTAYMQLSSLTSEDSAVYYCARYYGSDYEWYFDVWGTGTTVTVSS VL: DIVMTQSQKFMSTSVGDRVSITCKASQNVRTAVVWYQQNPGQSPKALIYLASNRHTGVPDRFTGSGSGTDFTLTISNVHSEDLADYFCLQHWNYPYTFGGGTKLEIK | 0.065 | 15.8 | 0.025 | no binding (tested: 50 nM (highest analyte concentration))
2 | 900725 (humanized anti-CD73 antigen-binding protein) (antibody, V domains shown) VH: QVQLVQSGAEVKKPGASVKLSCKASGYTFTSYWIHWVRQAPGQGLEWIGMIHPNSGSTYYNEKFKGRATLTVDKSTSTAYMELSSLRSEDTAVYYCARYYGSDYEWYFDVWGQGTTVTVSS VL: DIQMTQSPSSMSASVGDRVTITCKASQNVRTAVVWYQQKPGKAPKALIYLASNRHTGVPDRFSGSGSGTDFTLTISSLQPEDFATYFCLQHWNYPYTFGQGTKLEIK | 0.106 | 20.3 | 0.0697 | no binding (tested: 50 nM (highest analyte concentration))

Now from value to binder, other results behind:

Row | EC50 [1] [µg/mL] | non-specific binding amount (RU) [3] [RU] | EC50 of inhibition of the enzyme activity of CD73 on cell membrane (AMP/ATP, CellTiter-Glo) [4] [µg/mL] | Binder | binding result [2]
3 |  | 17.6 |  | 900727 (humanized anti-CD73 antigen-binding protein) (antibody, V domains shown) VH: QVQLVQSGAEVKKPGASVKVSCKASGYTFTSYWIHWVRQAPGQGLEWIGMIHPNSGSTYYAQKFQGRVTITVDKSTSTAYMELSSLRSEDTAVYYCARYYGSDYEWYFDVWGQGTTVTVSS VL: DIQMTQSPSSMSASVGDRVTITCKASQNVRTAVVWYQQKPGKAPKALIYLASNRHTGVPDRFSGSGSGTDFTLTISSLQPEDFATYFCLQHWNYPYTFGQGTKLEIK | no binding (tested: 50 nM (highest analyte concentration))
4 | 0.105 | 20.2 | 0.0467 | 900728 (humanized anti-CD73 antigen-binding protein) (antibody, V domains shown) VH: QVQLVQSGAEVKKPGASVKVSCKASGYTFTSYWIHWVRQAPGQGLEWIGMIHPNSGSTYYNEKFQGRVTMTVDKSTSTAYMELSSLRSEDTAVYYCARYYGSDYEWYFDVWGQGTTVTVSS VL: DIQMTQSPSSLSASVGDRVTITCKASQNVRTAVVWYQQKPGKAPKALIYLASNRHTGVPDRFSGSGSGTDFTLTISSLQPEDFATYYCLQHWNYPYTFGQGTKLEIK | no binding (tested: 50 nM (highest analyte concentration))
5 | 0.174 | 17.7 |  | 900726 (humanized anti-CD73 antigen-binding protein) (antibody, V domains shown) VH: QVQLVQSGAEVKKPGASVKLSCKASGYTFTSYWIHWVRQAPGQGLEWIGMIHPNSGSTYYNEKFKGRATLTVDKSTSTAYMELSSLRSEDTAVYYCARYYGSDYEWYFDVWGQGTTVTVSS VL: DIQMTQSPSSLSASVGDRVTITCKASQNVRTAVVWYQQKPGKAPKALIYLASNRHTGVPDRFSGSGSGTDFTLTISSLQPEDFATYYCLQHWNYPYTFGQGTKLEIK | no binding (tested: 50 nM (highest analyte concentration))
